We go through 2 substances from publication PMC10179162.

Assay [1] deals with chimeric HPV16 L1:P18I10 capsid protein (293F-derived, chromatography-purified L1:P18I10 VLP) (human papillomavirus type 16 | HIV-1) (UniProt P03101). The assay is described as follows: non-reducing SDS-PAGE (disulfide cross-linking); purified VLPs mixed with 2x Laemmli sample buffer with or without 20 mM DTT, 15 min at room temperature; 8-16% gel; blot probed with anti-HPV16 L1 mAb CAMVIR-1.

Assay [2] addresses chimeric HPV16 L1:P18I10 capsid protein (BEVS/IC-derived, ultracentrifugation-purified L1:P18I10 VLP) (human papillomavirus type 16 | HIV-1) (UniProt P03101). Described as above.

In assay [1], “chimeric HPV16 L1:P18I10 capsid protein (293F-derived, chromatography-purified L1:P18I10 VLP) (from UniProt P03101 1-129; P03101 137-505)” yielded a percent disulfide-bonded into oligomers (without DTT) of more than 99% and a percent monomeric (with DTT) of 80%.

Take “chimeric HPV16 L1:P18I10 capsid protein (BEVS/IC-derived, ultracentrifugation-purified L1:P18I10 VLP) (from UniProt P03101 1-129; P03101 137-505)”: in assay [2], the percent disulfide-bonded into oligomers (without DTT) is more than 99% and the percent monomeric (with DTT) was 50%.
